Experimental data reported in a protein production outcome set (Wang et al. 2014).

Test: label from the status in PepcDB records

| Sequence | protein production |
| --- | --- |
| MVQRITIAPQGPEFSRFVMGYWRLMDWNMSARQLVSFIEEHLDLGVTTVDHADIYGGYQCEAAFGEALKLAPHLRERMEIVSKCGIATTAREENVIGHYITDRDHIIKSAEQSLINLATDHLDLLLIHRPDPLMDADEVADAFKHLHQSGKVRHFGVSNFTPAQFALLQSRLPFTLATNQVEISPVHQPLLLDGTLDQLQQLRVRPMAWSCLGGGRLFNDDYFQPLRDELAVVAEELNAGSIEQVVNAWVLRLPSQPLPIIGSGKIERVRAAVEAETLKMTRQQWFRIRKAALGYDVP | not failed |
| METNFSIPLNETEEVLPEPAGHTVLWIFSLLVHGVTFVFGVLGNGLVIWVAGFRMTRTVNTICYLNLALADFSFSAILPFRMVSVAMREKWPFGSFLCKLVHVMIDINLFVSVYLITIIALDRCICVLHPAWAQNHRTMSLAKRVMTGLWIFTIVLTLPNFIFWTTISTTNGDTYCIFNFAFWGDTAVERLNVFITMAKVFLILHFIIGFSVPMSIITVCYGIIAAKIHRNHMIKSSRPLRVFAAVVASFFICWFPYELIGILMAVWLKEMLLNGKYKIILVLINPTSSLAFFNSCLNPILYVFMGRNFQERLIRSLPTSLERALTEVPDSAQTSNTDTTSASPPEETELQAM | failed |
| MTAKPAVVGGFILGALALGVAAIVLFGGQRLFTSTREVVVFFNESVAGLQVGAPVTFHGVPVGTVKTIALRVSTRDLSARIPVVLELQPDQISWEGEHLNGDDDTYQRLIAAGLRAQLAPQSIVTGQMRVDLDFKPGTSAALSGEPTDLPEIPAVASDLDELRDKVTELPLRDLVETAQKTLANVQALTSSLNTRIPTLTTSAEQSVAVATQTLVTTQEAVRQIQADASVTLKELSDLLADLHRQVDARGGELGKTLSAAERTARQAESLMISLNELAGPRARFRADLEAAARDLSASASSTRSFTRTLERDPSALLSGDTKR | failed |
| MSLRSHFATQKDQWQTYTKEKKIKIGFDATFVPMGYEEKDGSYIGFDIDLANAVFKLYGIDVEWQAIDWDMKETELKNGTIDLIWNGYSVTDERKQSADFTEPYMVNEQVLVTKKSSGIDSVAGMAGKTLGAQAGSSGYDAFNASPKILKDVVANQKVVQYSTFTQALIDLNSGRIDGLLIDRVYANYYLEKSGVLDQYNVMPAGYEGESFAVGARKVDKTLIKKINQGFETLYKNGEFQKISNKWFGEDVATDQVKGKREGHHHHHH | not failed |
| MSSSSDAPLVATRWVEIGLALFTAALGAIVMYGSQDIGIGWGDSGPEAGYFPFYIGLLLSAASLGNLLLALCRWRALGTSFVARTAFRRVLAVFLPIAAYVAAMPFAGIYLASALFIAWFMWRDRSRDKPYGVPLIVTLSCGAALASYLVFAVWFKVPLDAGILVDLAAFVGSARP | failed |
| MESLLRADQTLIPGAMCSRRVWTHSELALPSVSVTELDLVRGLLQALQGLSSPFLFWDQTGQTFRAKSHIRVSHLSHSSLHVLLAGFLYPATCLKLVESIVAAINTSLRSPPTLMAFSDSVSAWLEANIALKEEVMIDNSDITVTPTLLGLTSAEYLLQVVHGAIPHTFFDSNSTISAAEIAVHVLDYLYKKLDEVCLVQGGEVEGFHMLLQMFAGSLLPYIEGLDSWLFEGTLDDPCEELFFTANQSVSVDDAEFWEKSYQLMKVPNSKSNVTSLNEKKVMSGHDANSSLASDKDKEQNTRVLCPLFIKDICKSIVSAGKSLQLMQHIPSTSSENSGKTQFHGRNGYGKSSVGSLLTKMSSCSSTADLSLSEVFCLTLAGLIGHGDHVSRYLWKDEADEWEISPTLASYISGELVNDMDNKDLPVLTCSERMWYKLLVGAVQEKRAMEAKSELQSACYATGVKDGNSGLTAQKALQGLFCNENLVVSVSKMDLERNRNAWNVLNLSQNYCLPSLNDESLLSAVFEESGMADAGLSGTNYKFGFQFGRSEYISSQDDTNLLETLFPFPTLLPSFQAEPMDTRLPVVIMQECFTIYIRRQVDYIGKVILSKLMNDWKLMHELAVLRAIYLLGSGDLLQHFLTVIFDRLGKGESSNDDFELNIILQESIRNSADAMLLSSPDSLVVSISREDRDKDDKGDIIPLSSTRKSRVNSFGIDCLESLKFTYKVPWPLELIANSEAIKKYNQVKRAKYVLDKARRWMWKGKGSATKIRKHHWLLEQKLLNFVDAFHQYVMDRVYHTAWRELCEAMVKAGSLDEVIYVHETYLLSIQRQCFVVQEKLWAIIASRINMILGLALEFYSIQQTLSSGGAVSAIKARCEMEIDRIEKQFEDCIAFLLRVLSSKLNVGHFPHLADLVTRINYNYHYMSDTGSLMTTSGAETNSSRPWTAKSDV | failed |
| MLFSASLIHRIEFAPQRELYFLALYRILEAGLIAALVFSPVSLLVDPESDPHLGTVVAVGYLLLATILLVWGRNERWFTPLVFGSTVADILAATLAIHALPKASAGIAMMLLFNVAAAAILLRLRFSMILAWIAGVAMLVEYIWTVLSEGDSSRSLAELLMFFTSYTAVAYMCHQAAQRARYSQALAEKRRAQIVNLAEINELIIRRMRTGVLVVDAANRIGLSNETAAALLGYDRQLVESDYDLATVAPELIMRLKCWRIGRHYEDTPLRLAPDQPEVQPRFVSLLADSGLTLIFLDDVSVVSRRAESLTLLALGRFSASLAHEIRNPLAAIKHASQLLEESSNLDKGDQRLLDIILKQCQRTNGIVESVLGLARRERANPENLDLVGFVSRFVDEYRQTLSSEYDNLEIQTLHSTVQALVDPRHLYQILAVLTHNALRYGRFPDTPAQVRIEVVYTGGSVGINVLDQGPGIPDAAVLQLFQPFFTTSDHGTGLGLYIARELCNANQSNLEYVAIPGGGACFRITLPGPYALIPN | failed |
| MAKKTKAKAAKAARPKAAKTAVAKAKPAKRGVAARSVAAKPPKVAPGELVTLLDFVRYAVSRFAEAGVVFAHGTTDPIAEAVFLVGEALHLHPDQFEMFASARVTTREAAAILGLIERRIGSRLPAAYLVNKIYMRGVPFYVDERVIVPRSYIGELLDSHFDGGDTSLIDAPEAIERVLDLCTGSGCLAILAAYAFPNATVDAVDLSKDALAVATRNVAEHRLDDRVSLYHGDLFGPLGDERYDLIITNPPYVDADGMASLPAECRAEPAMAFDGGDDGLTIIRRILAEAKHHLNPDGGLLCEVGRCRPQIEDEFPQLPLLWLDSEDSEAEVFWIAAADL | failed |
| MVLIALLIALSVERLYHSPAFLHWSFFLERWQHWSAARLTNEKWKSEPLQLVRLLVPALAVGFLVVLLDNLMVTFIVSILSLLLAMNCEPARKSYKAYLKAANRGDEQQVNEHQHALTEFAGQHQPKQLSDSLIWINYRQYIAVMFYFVLFGSFGALVYASLRYAEKQISEPESTKLWQQFMWFADWVPARLAGFGLLIVGHFSRAFPVWVKHSLNPQADPDKLLFNVASKAEDIPQHPDDRTEHIACQLRLMRRQQIFWVCVIAALTLTGWVN | failed |
| RRKVGVLVDGPNMLRKEFNINLKEIREILSEYGDIKIAKVFLNQYATEKLVEAIENQGFEPIVTSGDVDVRMAVEAMELIYNDSIDAVALVTRDADFKAVLMKAMEMGKETIIIGAEPGFSTALKNSADIAIVLNEDEE | failed |
| MNTGTAVITGASSGLGLQCARALLRRDASWHVVLAVRDPARGRAAMEELGEPNRCSVLEVDLASVRSVRSFVETVRTTPLPPIRALVCNAGLQVVSGIAFTDDGVEMTFGVNHLGHFALVTGILDWLARPARIVVVSSGTHDPSKHTGMPDPRYTCAADLAHPPTDQNTPAEGRRRYTTSKLCNVLFTYELDRRLDHGEQGVMVNAFDPGLMPGSGLARDYPPILRLAYRLLSPMLRVLPFVHSTRVSGEHLAALAVDPRFAGVTGQYFAGAKAIRSSAESYDRAKALDLWETSERLLAQVT | failed |
| MEPAGPCGFCPAGEVQPARYTCPRCNAPYCSLRCYRTHGTCAENFY | not failed |
| MSIITRLFNNSDFEKLNQLCKLYDDLGYPTNENDLKKRLKKITNHDDYFLLLLIKENKIIGLSGMCKMMFYEKNAEYMRILAFVIHSEFRKKGYGKRLLADSEEFSKRLNCKAITLNSGNRNERLSAHKLYSDNGYV | failed |
| DPGERLYDLNMPAYVKFNYMAEREDELSLIKGTKVIVMEKCSDGWWRGSYNGQVGWFPSNYVTEEGDSPLGDHVG | not failed |
| EVTGSVSLEALEEVQVGENLEVGVGIDELVNAEAFAYDFTLNYDENAFEYVEAISDDGVFVNAKKIEDGKVRVLVSSLTGEPLPAKEVLAKVVLRAEAKAEGSNLSVTNSSVGDGEGLVHEIAGTEKTVNIIE | not failed |
